Experimental data reported in patent publication US11118167B2, “Enzyme-mediated depletion of adenosine and/or methylthioadenosine” (BOARD OF REGENTS, THE UNIVERSITY OF TEXAS SYSTEM, priority 2017, dated 2021).

B1: hs-MTAP: MTAP enzyme from Homo sapiens (SEQ ID NO: 1), N-terminal His6 tag, expressed in E. coli (protein, listed as Homo sapiens)
chain: MASGTTTTAVKIGIIGGTGLDDPEILEGRTEKYVDTPFGKPSDALILGKIKNVDCVLLARHGRQHTIMPSKVNYQANIWALKEEGCTHVIVTTACGSLREEIQPGDIVIIDQFIDRTTMRPQSFYDGSHSCARGVCHIPMAEPFCPKTREVLIETAKKLGLRCHSKGTMVTIEGPRFSSRAESFMFRTWGADVINMTTVPEVVLAKEAGICYASIAMATDYDCWKEHEEAVSVDRVLKTLKENANKAKSLLLTTIPQIGSTEWSETLHNLKNMAQFSVLLPRH
modifications: N-terminal His6 tag
B2: PEG-hs-MTAP: hs-MTAP with surface lysine residues reacted with Methoxyl PEG Succinimidyl Carbonate 5000 MW (conjugate, UniProt Q13126 1-283, looked up)
S-methyl-5'-thioadenosine …: B1 chain
modifications: PEG 5000
notes: hs-MTAP with surface lysine residues reacted with Methoxyl PEG Succinimidyl Carbonate 5000 MW
B3: se-MTAN: MTAN enzyme from Salmonella enterica (SEQ ID NO: 3), N-terminal His6 tag, expressed in E. coli (protein, listed as Salmonella enterica)
chain: MKIGIIGAMEEEVTLLRDKIDNRQTITLGGCEIYTGQLNGTEVALLKSGIGKVAAALGATLLLEHCKPDVIINTGSAGGLASTLKVGDIVVSDETRYHDADVTAFGYEYGQLPGCPAGFKADDKLIAAAESCIRELNLNAVRGLIVSGDAFINGSVGLAKIRHNFPDAVAVEMEATAIAHVCHNFNVPFVVVRAISDVADQQSHLSFDEFLAVAAKQSTLMVETLVQKLAHG
modifications: N-terminal His6 tag

Tests used:
[1] = Kinetic stability of purified enzymes in phosphate buffer; format: physicochemical
Experimental: The kinetic stabilities of purified hs-MTAP and se-MTAN enzymes were determined by incubating the enzymes in a 100 mM phosphate buffer (pH 7.4) at 37° C. Over the course of four days, aliquots of hs-MTAP and se-MTAN were withdrawn from the incubations and assessed for their ability to degrade MTA as described in Example 5. The resulting data were processed and fitted to an exponential equation to determine the decay rate.

murine T cells = assay: Restoring proliferation of murine T cells treated with MTA (CellTrace Violet, FACS); format: cell-based, mouse; settings: 5 μM enzyme, CD8+ and CD4+ T cells
Description: Spleens dissected from healthy 8-week-old C57BL6 mice were crushed in a 70 μm Falcon™ Cell Strainer to obtain single cells, which were further isolated using the EasySep™ Mouse T-Cell Isolation Kit (Stem Cell). Isolated T cells were brought to a concentration of 1×10^6 cells/mL in PBS and were processed according to the CellTrace™ Violet Cell Proliferation Kit protocol (Thermo Fisher), which measures proliferation as a function of dye dilution with each cell-division. The labeled cells were then re-counted and brought to 1×10^6 cells/mL of RPMI media and 1 mL/well were plated, after which anti-CD3/CD28 beads were added to activate the T cells (Dynabeads® Mouse T-Activator CD3/CD28 for T-Cell Expansion and Activation from Thermo Fisher) according to the protocol from the kit. Subsequently, three different MTA concentrations, 0 μM MTA, 125 μM MTA, or 250 μM MTA were added to the plated cells. Finally, MTAP and MTAN were added to the appropriate wells at a final concentration of 5 μM enzyme, and PBS was added to the control wells. After incubation for five days, cells were then collected and stained with anti-CD3, anti-CD4, anti-CD8, and Fixable Viability Dye eFluor™ 520 and analyzed by FACS. The antibodies used were all from Biolegend: PE anti-mouse CD3 (17A2), APC anti-mouse CD4 (GK1.5), APC/Fire™ 750 anti-mouse CD8a (53-6.7), and Brilliant Violet 421™ anti-mouse Ki-67 (16A8). […]

WT B16-F10 tumors = assay: Efficacy in the B16 WT melanoma tumor model; format: in vivo, mouse; settings: C57/BL6 mice, 50 mg/kg three times/week peri-tumoral, 2 weeks
Experimental: (§1) Two cohorts each of C57/BL6 mice were subcutaneously inoculated with either 50,000 WT B16-F10 or B16-F10 MTAP^−/− cells. When the tumors reached a mean size of 55 mm^3 the mice were treated with either vehicle (PBS) or 50 mg/kg of PEG-MTAP three times/week by peri-tumoral injection for 2 weeks. As expected from a tumor highly expressing MTAP, it was observed that PEG-MTAP treatment had no effect on the growth of WT B16-F10 tumors (FIG. 8A).

[2] = test system: B16-F10 MTAP−/− allografts; assay: Efficacy in the B16-MTAP−/− melanoma tumor model; format: in vivo, mouse; settings: 50 mg/kg three times/week peri-tumoral, 2 weeks
Description: As B16 is a very well characterized cell line in terms of metabolism and its interaction with host immune systems, it was hypothesized that an MTAP deletion in this strain would create a relevant model to evaluate the consequences of MTA accumulation both metabolically to the tumor and upon the host immune system. Cas9 protein (TrueCut™ Cas9 Protein v2) and synthetic single guide RNA purchased through ThermoFisher were transfected into B16-F10 WT cells using lypofectamine (Lipofectamine™ CRISPRMAX™ Cas9 Transfection Reagent). After two days of transfection, cells were plated using limited dilution method into ten 96-well plates. Plates were examined daily for single cell clones and after reaching confluency (10-14 days post transfection) clones were further expanded and analyzed for MTAP expression through Western blotting, and clones lacking MTAP expression were verified for gene disruption by cloning and sequencing.
as §1

B16-F10 MTAP−/− tumor = assay: Immune phenotype in the B16-MTAP−/− melanoma tumor model (FACS); format: in vivo, mouse; settings: two doses, 24 hr post dose, vs vehicle
Experimental: Lymphocyte panels observed by FACS analyses from C57/BL6 mice bearing B16-F10 MTAP^−/− tumor samples were assessed after treatment with two doses of PEG-MTAP or vehicle (analyzed 24 hr post dose).

| Molecule | half-life (T1/2) of activity ([1]; pH 7.4) [h] | reversal of the MTA effect on T cell proliferation and viability (murine T cells) | tumor growth (WT B16-F10 tumors) | complete responses (CRs) in the treatment group ([2]; 3/7 CRs) [%] | tumor growth ([2]; C57/BL6 mice) | percentage of CD4+ T cells (B16-F10 MTAP−/− tumor) | percentage of NK1.1+ natural killer cells (B16-F10 MTAP−/− tumor) | percentage of proliferating CD8+ Granzyme B+ T cells (B16-F10 MTAP−/− tumor) | half-life (T1/2) of activity ([1]; 100 mM phosphate buffer, pH 7.4, 37° C.) [h] |
| --- | --- | --- | --- | --- | --- | --- | --- | --- | --- |
| B1 | 57 | completely reversed |  |  |  |  |  |  |  |
| B2 |  |  | no effect | 43 | drastically retarded tumor growth | large increases | large increases | large increases |  |
| B3 |  | completely reversed |  |  |  |  |  |  | 56 |
